According to PMC12583524 (Nature Communications, 2025):

Assays:
[1] = molecular target: recombinant CHIKV E1–E2 fusion protein (Chikungunya virus, sequence as …); experiment: SPR
[2] = molecular target: T1, CHIKV VLP (strain 119067) (Chikungunya virus, strain 119067, UniProt A0A1I9WLN7); experiment: dynamic light scattering
[3] = molecular target: T1, CHIKV VLP (strain 119067); experiment: cryo-EM structure

B1: C34 Fab (papain digestion of the mAb) (Fab, V domains shown)
VH: EVQLVESGGGLVQPGRSLRLSCAASGFTFDDYAMHWVRQAPGKGLEWVSGISWNSGSIGYADSVKGRFTISRDNAKNSLYLQMNSLRAEDTALYYCAKDMGYSGNDDYYGMDVWGQGTTVTVSS
VL: DIQLTQSPSSLSASVGDRVTITCRASQRISSYLNWYQQKPGKAPKLLIYGAFSLQSGVPSRFSGSGSGTDFTLTISSLQPEDFATYYCQQSYRTLTRTFGQGTKVEIK
Kd [1]: < 1 nM

B2: C34 IgG (antibody, V domains shown)
VH: EVQLVESGGGLVQPGRSLRLSCAASGFTFDDYAMHWVRQAPGKGLEWVSGISWNSGSIGYADSVKGRFTISRDNAKNSLYLQMNSLRAEDTALYYCAKDMGYSGNDDYYGMDVWGQGTTVTVSS
VL: DIQLTQSPSSLSASVGDRVTITCRASQRISSYLNWYQQKPGKAPKLLIYGAFSLQSGVPSRFSGSGSGTDFTLTISSLQPEDFATYYCQQSYRTLTRTFGQGTKVEIK
binding result [2]: binds

B3: C34 Fab (recombinant, His-tag on the heavy chain) (Fab, V domains shown)
VH: EVQLVESGGGLVQPGRSLRLSCAASGFTFDDYAMHWVRQAPGKGLEWVSGISWNSGSIGYADSVKGRFTISRDNAKNSLYLQMNSLRAEDTALYYCAKDMGYSGNDDYYGMDVWGQGTTVTVSS
VL: DIQLTQSPSSLSASVGDRVTITCRASQRISSYLNWYQQKPGKAPKLLIYGAFSLQSGVPSRFSGSGSGTDFTLTISSLQPEDFATYYCQQSYRTLTRTFGQGTKVEIK
binding result [3]: binds

B4: C37 Fab (papain digestion of the mAb) (Fab, V domains shown)
VH: QVQLQESGPGLVKPSETLSLTCTVSGGSIGSSSYYWGWIRQPPGKGLQWIGSFHYSGTTYYNPSLKSRVTISVDTSKNHFSLKLSSVTAADTAVYYCASRQNWNDGYFDYWGQGTLVTVSS
VL: DIQMTQSPATLSLSPGERATLFCRASQSVSSSLAWYQQKPGQAPRLLIYDASNRATGIPARFSGSGSGTDFTLTISSLEPEDFAVYYCQQRGNWPPITFGQGTRLDTK
Kd [1]: < 1 nM

B5: C37 Fab (recombinant, His-tag on the heavy chain) (Fab, V domains shown)
VH: QVQLQESGPGLVKPSETLSLTCTVSGGSIGSSSYYWGWIRQPPGKGLQWIGSFHYSGTTYYNPSLKSRVTISVDTSKNHFSLKLSSVTAADTAVYYCASRQNWNDGYFDYWGQGTLVTVSS
VL: DIQMTQSPATLSLSPGERATLFCRASQSVSSSLAWYQQKPGQAPRLLIYDASNRATGIPARFSGSGSGTDFTLTISSLEPEDFAVYYCQQRGNWPPITFGQGTRLDTK
binding result [3]: binds

B6: C37 IgG (antibody, V domains shown)
VH: QVQLQESGPGLVKPSETLSLTCTVSGGSIGSSSYYWGWIRQPPGKGLQWIGSFHYSGTTYYNPSLKSRVTISVDTSKNHFSLKLSSVTAADTAVYYCASRQNWNDGYFDYWGQGTLVTVSS
VL: DIQMTQSPATLSLSPGERATLFCRASQSVSSSLAWYQQKPGQAPRLLIYDASNRATGIPARFSGSGSGTDFTLTISSLEPEDFAVYYCQQRGNWPPITFGQGTRLDTK
binding result [2]: binds
